Target: T1, アミロイドβ (antigen of the amyloid β ELISA) (UniProt P05067 672-713)
T1 construct: also called Aβ
Test: amyloid β ELISA, conditioned medium of transient transfection

T1 sequence (P05067 672-713): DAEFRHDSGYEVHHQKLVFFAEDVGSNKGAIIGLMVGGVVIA

binding result: no binding
B1: C2 HuVH AF バージョン3 + キメラC2カッパ鎖 (transient) (antibody, name in Kabat numbering, V domains shown)
VH: EVQLVESGGGLVQPGGSLRLSCAASGFTFSSYGMSWVRQAPGKGLELVASINSNGGSTYYPDSVKGRFTISRDNAKNSLYLQMNSLRAEDTAVYYCARGDYWGQGTTVTVSS
VL: DVVMTQTPLSLPVSLGDQASISCRSSQSLVYSNGDTYLHWYLQKPGQSPKLLIYKVSNRFSGVPDRFSGSGSGTDFTLKISRVEAEDLGVYFCSQSTHVPWTFGGGTKLEIK
notes: Transient expression
